We go through 3 substances from publication PMC8653789.

What all share (assay): AlphaScreen or HTRF
On the technique in general: Bead proximity is the source of the signal in Alpha formats.

Experiment [1] addresses H3K4me1/H4K12ac nucleosome (UniProt P04908).
Experiment [2] concerns the target H3K4me2/H4K12ac nucleosome (UniProt P04908).
Experiment [3] deals with H3K4me3/H4K12ac nucleosome (UniProt P04908).

A value given as a limit tells only on which side of the number the result lay.

On to “PHIP Tudor–BD1–BD2 R1310C (from UniProt Q8WWQ0 940-1434) (domain or fragment)”, for which the fold reduction of binding relative to wild type in experiment [1] and in experiment [2] was greater than 4 fold each time.

As for “PHIP Tudor–BD1–BD2 R1402S (from UniProt Q8WWQ0 940-1434) (domain or fragment)”, the fold reduction of binding relative to wild type in experiment [1], in experiment [2] and in experiment [3] was greater than 10 fold in each case.

“PHIP Tudor–BD1–BD2 W1156L (from UniProt Q8WWQ0 940-1434) (domain or fragment)”: the fold reduction of binding relative to wild type in experiment [1] and in experiment [2] was greater than 3 fold each time.
